Data: US20130164308A1 (RINAT NEUROSCIENCE, published 2013)

target: T1, S. aureus alpha-toxin (Staphylococcus aureus, UniProt P09616)

Row | Binder | Kd [nM]
1 | DF1.1 variant HCDR3-P12A/LCDR3-S6R (antibody, V domains shown) VH: QVQLVQSGAEVKKPGSSVKVSCKTSGGTFNNVAINWVRQAPGQGLEWMGGIIPGLDTPNYAQKFQGRVTITADKSTTSTYLELSSLRSDDTAVYYCAREMEVSGRWRATEAFEIWGQGTMVTVSS VL: ETTLTQSPGTLSLSPGERATLSCRASQTISNNFVAWYQQKPGQAPRLLIYGASTRATGIPDRFSGSGSGTDFTLTISSLEPEDFAVYYCQQYGSRPYTFGQGTKVDIK | 330
2 | DF1.1 variant HCDR3-W10A/LCDR3-Y3A (antibody, V domains shown) VH: QVQLVQSGAEVKKPGSSVKVSCKTSGGTFNNVAINWVRQAPGQGLEWMGGIIPGLDTPNYAQKFQGRVTITADKSTTSTYLELSSLRSDDTAVYYCAREMEVSGRARPTEAFEIWGQGTMVTVSS VL: ETTLTQSPGTLSLSPGERATLSCRASQTISNNFVAWYQQKPGQAPRLLIYGASTRATGIPDRFSGSGSGTDFTLTISSLEPEDFAVYYCQQAGSSPYTFGQGTKVDIK | 440
3 | DF1.1 variant HCDR3-A15R/LCDR3-Y3A (antibody, V domains shown) VH: QVQLVQSGAEVKKPGSSVKVSCKTSGGTFNNVAINWVRQAPGQGLEWMGGIIPGLDTPNYAQKFQGRVTITADKSTTSTYLELSSLRSDDTAVYYCAREMEVSGRWRPTERFEIWGQGTMVTVSS VL: ETTLTQSPGTLSLSPGERATLSCRASQTISNNFVAWYQQKPGQAPRLLIYGASTRATGIPDRFSGSGSGTDFTLTISSLEPEDFAVYYCQQAGSSPYTFGQGTKVDIK | 280
4 | DF1.1 variant HCDR3-P12A/LCDR3-Y8A (antibody, V domains shown) VH: QVQLVQSGAEVKKPGSSVKVSCKTSGGTFNNVAINWVRQAPGQGLEWMGGIIPGLDTPNYAQKFQGRVTITADKSTTSTYLELSSLRSDDTAVYYCAREMEVSGRWRATEAFEIWGQGTMVTVSS VL: ETTLTQSPGTLSLSPGERATLSCRASQTISNNFVAWYQQKPGQAPRLLIYGASTRATGIPDRFSGSGSGTDFTLTISSLEPEDFAVYYCQQYGSSPATFGQGTKVDIK | 37
5 | DF1.1 variant HCDR3-W10A/LCDR3-Y8A (antibody, V domains shown) VH: QVQLVQSGAEVKKPGSSVKVSCKTSGGTFNNVAINWVRQAPGQGLEWMGGIIPGLDTPNYAQKFQGRVTITADKSTTSTYLELSSLRSDDTAVYYCAREMEVSGRARPTEAFEIWGQGTMVTVSS VL: ETTLTQSPGTLSLSPGERATLSCRASQTISNNFVAWYQQKPGQAPRLLIYGASTRATGIPDRFSGSGSGTDFTLTISSLEPEDFAVYYCQQYGSSPATFGQGTKVDIK | 440
6 | DF1.1 variant HCDR3-P12A/LCDR3-Y3A (antibody, V domains shown) VH: QVQLVQSGAEVKKPGSSVKVSCKTSGGTFNNVAINWVRQAPGQGLEWMGGIIPGLDTPNYAQKFQGRVTITADKSTTSTYLELSSLRSDDTAVYYCAREMEVSGRWRATEAFEIWGQGTMVTVSS VL: ETTLTQSPGTLSLSPGERATLSCRASQTISNNFVAWYQQKPGQAPRLLIYGASTRATGIPDRFSGSGSGTDFTLTISSLEPEDFAVYYCQQAGSSPYTFGQGTKVDIK | 190

target: T1, S. aureus alpha-toxin; remark: another data set of the same source

Row | Binder | Kd [nM]
7 | DF1.1 variant LCDR3-Q1A (antibody, V domains shown) VH: QVQLVQSGAEVKKPGSSVKVSCKTSGGTFNNVAINWVRQAPGQGLEWMGGIIPGLDTPNYAQKFQGRVTITADKSTTSTYLELSSLRSDDTAVYYCAREMEVSGRWRPTEAFEIWGQGTMVTVSS VL: ETTLTQSPGTLSLSPGERATLSCRASQTISNNFVAWYQQKPGQAPRLLIYGASTRATGIPDRFSGSGSGTDFTLTISSLEPEDFAVYYCAQYGSSPYTFGQGTKVDIK | < 0.14
8 | DF1.1 variant LCDR3-G4R (antibody, V domains shown) VH: QVQLVQSGAEVKKPGSSVKVSCKTSGGTFNNVAINWVRQAPGQGLEWMGGIIPGLDTPNYAQKFQGRVTITADKSTTSTYLELSSLRSDDTAVYYCAREMEVSGRWRPTEAFEIWGQGTMVTVSS VL: ETTLTQSPGTLSLSPGERATLSCRASQTISNNFVAWYQQKPGQAPRLLIYGASTRATGIPDRFSGSGSGTDFTLTISSLEPEDFAVYYCQQYRSSPYTFGQGTKVDIK | < 0.14
9 | DF1.1 variant LCDR3-T9R (antibody, V domains shown) VH: QVQLVQSGAEVKKPGSSVKVSCKTSGGTFNNVAINWVRQAPGQGLEWMGGIIPGLDTPNYAQKFQGRVTITADKSTTSTYLELSSLRSDDTAVYYCAREMEVSGRWRPTEAFEIWGQGTMVTVSS VL: ETTLTQSPGTLSLSPGERATLSCRASQTISNNFVAWYQQKPGQAPRLLIYGASTRATGIPDRFSGSGSGTDFTLTISSLEPEDFAVYYCQQYGSSPYRFGQGTKVDIK | < 0.14
10 | DF1.1 variant LCDR3-P7A (antibody, V domains shown) VH: QVQLVQSGAEVKKPGSSVKVSCKTSGGTFNNVAINWVRQAPGQGLEWMGGIIPGLDTPNYAQKFQGRVTITADKSTTSTYLELSSLRSDDTAVYYCAREMEVSGRWRPTEAFEIWGQGTMVTVSS VL: ETTLTQSPGTLSLSPGERATLSCRASQTISNNFVAWYQQKPGQAPRLLIYGASTRATGIPDRFSGSGSGTDFTLTISSLEPEDFAVYYCQQYGSSAYTFGQGTKVDIK | < 0.14
11 | DF1.1 variant HCDR3-R11A (antibody, V domains shown) VH: QVQLVQSGAEVKKPGSSVKVSCKTSGGTFNNVAINWVRQAPGQGLEWMGGIIPGLDTPNYAQKFQGRVTITADKSTTSTYLELSSLRSDDTAVYYCAREMEVSGRWAPTEAFEIWGQGTMVTVSS VL: ETTLTQSPGTLSLSPGERATLSCRASQTISNNFVAWYQQKPGQAPRLLIYGASTRATGIPDRFSGSGSGTDFTLTISSLEPEDFAVYYCQQYGSSPYTFGQGTKVDIK | 0.8
12 | DF1.1 variant HCDR3-G8R (antibody, V domains shown) VH: QVQLVQSGAEVKKPGSSVKVSCKTSGGTFNNVAINWVRQAPGQGLEWMGGIIPGLDTPNYAQKFQGRVTITADKSTTSTYLELSSLRSDDTAVYYCAREMEVSRRWRPTEAFEIWGQGTMVTVSS VL: ETTLTQSPGTLSLSPGERATLSCRASQTISNNFVAWYQQKPGQAPRLLIYGASTRATGIPDRFSGSGSGTDFTLTISSLEPEDFAVYYCQQYGSSPYTFGQGTKVDIK | 0.4
13 | DF1.1 variant HCDR3-R9A (antibody, V domains shown) VH: QVQLVQSGAEVKKPGSSVKVSCKTSGGTFNNVAINWVRQAPGQGLEWMGGIIPGLDTPNYAQKFQGRVTITADKSTTSTYLELSSLRSDDTAVYYCAREMEVSGAWRPTEAFEIWGQGTMVTVSS VL: ETTLTQSPGTLSLSPGERATLSCRASQTISNNFVAWYQQKPGQAPRLLIYGASTRATGIPDRFSGSGSGTDFTLTISSLEPEDFAVYYCQQYGSSPYTFGQGTKVDIK | 0.4
14 | DF1.1 variant HCDR3-S7R (antibody, V domains shown) VH: QVQLVQSGAEVKKPGSSVKVSCKTSGGTFNNVAINWVRQAPGQGLEWMGGIIPGLDTPNYAQKFQGRVTITADKSTTSTYLELSSLRSDDTAVYYCAREMEVRGRWRPTEAFEIWGQGTMVTVSS VL: ETTLTQSPGTLSLSPGERATLSCRASQTISNNFVAWYQQKPGQAPRLLIYGASTRATGIPDRFSGSGSGTDFTLTISSLEPEDFAVYYCQQYGSSPYTFGQGTKVDIK | 0.3
15 | DF1.1 variant HCDR3-E5A (antibody, V domains shown) VH: QVQLVQSGAEVKKPGSSVKVSCKTSGGTFNNVAINWVRQAPGQGLEWMGGIIPGLDTPNYAQKFQGRVTITADKSTTSTYLELSSLRSDDTAVYYCAREMAVSGRWRPTEAFEIWGQGTMVTVSS VL: ETTLTQSPGTLSLSPGERATLSCRASQTISNNFVAWYQQKPGQAPRLLIYGASTRATGIPDRFSGSGSGTDFTLTISSLEPEDFAVYYCQQYGSSPYTFGQGTKVDIK | 0.4
